From article PMC10248797, “Ndel1 disfavors dynein–dynactin–adaptor complex formation in two distinct ways” (The Journal of Biological Chemistry, 2023)
Each block holds one binder with its values, some of them ahead of it.

B6: Lis1 (in solution) (natural protein, UniProt P43034 1-410, looked up)
chain: MVLSQRQRDELNRAIADYLRSNGYEEAYSVFKKEAELDVNEELDKKYAGLLEKKWTSVIRLQKKVMELESKLNEAKEEFTSGGPLGQKRDPKEWIPRPPEKYALSGHRSPVTRVIFHPVFSVMVSASEDATIKVWDYETGDFERTLKGHTDSVQDISFDHSGKLLASCSADMTIKLWDFQGFECIRTMHGHDHNVSSVAIMPNGDHIVSASRDKTIKMWEVQTGYCVKTFTGHREWVRMVRPNQDGTLIASCSNDQTVRVWVVATKECKAELREHEHVVECISWAPESSYSSISEATGSETKKSGKPGPFLLSGSRDKTIKMWDVSTGMCLMTLVGHDNWVRGVLFHSGGKFILSCADDKTLRVWDYKNKRCMKTLNAHEHFVTSLDFHKTAPYVVTGSVDQTVKVWECR

Experiments:
[1] = molecular target: T1, SNAP-tagged, recombinant full-length human cytoplasmic dynein-1 with all associated accessory chains (human, UniProt Q14204 1-4646; Q13409-3 1-612; O43237 1-492; P63172 1-113; Q9NP97 1-96; P63167 …); assay: pull-down; quantitative depletion assay: 0-600 nM Ndel1 construct coupled to Magne HaloTag beads via the HaloTag; 5 nM dynein in solution, 45 min; binding buffer 30 mM Hepes pH 7.4, 36 mM KCl, 1 mM ADP, 1 mg/ml casein, 0.1% NP-40; supernatant on SDS-PAGE, densitometry; one-site fit with Bmax set to 1; settings: both partners purified
T1 construct: cytoplasmic dynein 1 heavy chain 1 (DHC1), human; dynein intermediate chain 2, isoform 2C (IC2C), human; dynein light intermediate chain 2 (LIC2), human; dynein light chain Tctex1, human; dynein light chain LC8, human; For motility assays the SNAP tag was labelled with TMR or Alexa647; source: Sf9, purified (IgG Sepharose, TEV cleavage, SEC); not shown: His, N-terminal, cleaved; ZZ, N-terminal, …

Lis1 = molecular target: T2, Lis1 (UniProt P43034 1-410); assay: pull-down; depletion of 5 nM Lis1 from solution by Ndel1 coupled to Magne HaloTag beads; binding buffer with 150 mM KCl; SDS-PAGE densitometry of the supernatant; quadratic binding equation; settings: both partners purified
T2 construct: Lis1; also called ZZ-TEV-Lis1; source: Sf9 cells, purified (IgG Sepharose, TEV cleavage, size-exclusion chromatography); not shown: ZZ, N-terminal, cleaved
T2 sequence (looked up): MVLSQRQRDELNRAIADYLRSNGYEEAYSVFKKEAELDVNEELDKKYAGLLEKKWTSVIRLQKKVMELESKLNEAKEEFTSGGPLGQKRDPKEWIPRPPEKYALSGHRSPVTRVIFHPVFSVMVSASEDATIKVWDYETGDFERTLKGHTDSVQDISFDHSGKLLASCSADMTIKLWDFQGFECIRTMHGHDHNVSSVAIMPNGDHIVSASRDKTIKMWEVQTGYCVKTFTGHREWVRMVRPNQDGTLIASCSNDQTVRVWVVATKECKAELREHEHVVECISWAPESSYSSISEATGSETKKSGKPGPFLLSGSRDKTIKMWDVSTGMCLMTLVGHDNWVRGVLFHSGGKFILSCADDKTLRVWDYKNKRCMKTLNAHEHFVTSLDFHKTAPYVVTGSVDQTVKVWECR

[2] = molecular target: T1, SNAP-tagged, recombinant full-length …; assay: cell-based or functional assay
Lis1 (in solution) = molecular target: B6; assay: pull-down; quantitative depletion assay: Ndel1 construct on Magne HaloTag beads via the N-terminal HaloTag; 5 nM Lis1 in solution; binding buffer with 150 mM KCl; SDS-PAGE densitometry; quadratic binding equation; settings: both partners purified
[3] = molecular target: T1, SNAP-tagged, recombinant full-length …; assay: pull-down; dynein-Lis1 binding curve (Fig. S4G); one-site fit with Bmax set to 1; who was on the beads is not told for this curve; settings: both partners purified

B3: Halo-tagged full-length Ndel1 with the four CDK1 sites mutated to aspartic acid (S198D; T219D; S231D; S242D), with C-terminal 6X-His tag (natural protein, UniProt Q9GZM8 1-345, looked up)
chain: MDGEDIPDFSSLKEETAYWKELSLKYKQSFQEARDELVEFQEGSRELEAELEAQLVQAEQRNRDLQADNQRLKYEVEALKEKLEHQYAQSYKQVSVLEDDLSQTRAIKEQLHKYVRELEQANDDLERAKRATIVSLEDFEQRLNQAIERNAFLESELDEKESLLVSVQRLKDEARDLRQELAVRERQQEVTRKSAPSDPTLDCEKMDSAVQASLSLPADPVGKGTENTFPDPKAIPNGFGTDPLTPSARISALNIVGDLLRKVGALESKLAACRNFAKDQASRKSYISGNVNCGVLNGNGTKFSRSGHTSFFDKGAVNGFDPAPPPPGLGSSRPSSAPGMLPLSV
notes: Ndel1 with four phosphomimetic mutations; also called FL-Ndel1^PM; Ndel1^PM; source: Sf9, purified (IgG Sepharose, TEV cleavage, SEC); not shown: ZZ, N-terminal, cleaved; HaloTag, N-terminal, kept; His6, C-terminal, kept
- processive landing rate of DDB (smTIRF) with 50 nM FL-Ndel1^PM, against DDB alone [2]: 10 fold reduction
- Kd (Lis1 (in solution)): ~4 nM

B4: Full-length phosphomimetic Ndel1 (S198D; T219D; S231D; S242D) with N-terminal HaloTag and C-terminal 6X-His tag (natural protein, UniProt Q9GZM8 1-345, looked up)
chain: MDGEDIPDFSSLKEETAYWKELSLKYKQSFQEARDELVEFQEGSRELEAELEAQLVQAEQRNRDLQADNQRLKYEVEALKEKLEHQYAQSYKQVSVLEDDLSQTRAIKEQLHKYVRELEQANDDLERAKRATIVSLEDFEQRLNQAIERNAFLESELDEKESLLVSVQRLKDEARDLRQELAVRERQQEVTRKSAPSDPTLDCEKMDSAVQASLSLPADPVGKGTENTFPDPKAIPNGFGTDPLTPSARISALNIVGDLLRKVGALESKLAACRNFAKDQASRKSYISGNVNCGVLNGNGTKFSRSGHTSFFDKGAVNGFDPAPPPPGLGSSRPSSAPGMLPLSV
notes: Ndel1 with the four CDK1 sites changed to aspartic acid; also called FL-Ndel1PM; Halo-Ndel1PM; source: Sf9 cells, purified (IgG Sepharose, TEV cleavage, size-exclusion chromatography); not shown: ZZ, N-terminal, cleaved; HaloTag, N-terminal, kept; His6, C-terminal, kept
- Kd (Lis1): 3.9 nM

B5: Halo-tagged full-length Ndel1 with C-terminal 6X-His tag (natural protein, UniProt Q9GZM8 1-345, looked up)
chain: MDGEDIPDFSSLKEETAYWKELSLKYKQSFQEARDELVEFQEGSRELEAELEAQLVQAEQRNRDLQADNQRLKYEVEALKEKLEHQYAQSYKQVSVLEDDLSQTRAIKEQLHKYVRELEQANDDLERAKRATIVSLEDFEQRLNQAIERNAFLESELDEKESLLVSVQRLKDEARDLRQELAVRERQQEVTRKSAPSSPTLDCEKMDSAVQASLSLPATPVGKGTENTFPSPKAIPNGFGTSPLTPSARISALNIVGDLLRKVGALESKLAACRNFAKDQASRKSYISGNVNCGVLNGNGTKFSRSGHTSFFDKGAVNGFDPAPPPPGLGSSRPSSAPGMLPLSV
notes: Ndel1; 345 residues by the printed range 194-345; also called FL-Ndel1; ZZ-TEV-Halo-Ndel1-His6; source: Sf9, purified (IgG Sepharose, TEV cleavage, SEC); not shown: ZZ, N-terminal, cleaved; HaloTag, N-terminal, kept; His6, C-terminal, kept
- landing rate of processive DDB events (smTIRF) with 300 nM FL-Ndel1, against DDB alone [2]: ~5 fold reduction
- processive landing rate of DDB (smTIRF) with 50 nM FL-Ndel1, against DDB alone [2]: 1.7 fold reduction
- velocity of DDB (smTIRF) with 300 nM FL-Ndel1, against DDB alone [2]: ~2 fold reduction
- Kd (Lis1 (in solution)): ~4 nM
- Kd [1]: ~33 nM

Binder: B6
- landing rate of DDB (smTIRF) with 50 nM Lis1 and 50 nM FL-Ndel1^PM together, against DDB alone [2]: ~2 fold reduction

B8: Halo-tagged Ndel1(1-192), N-terminal coiled coil only, with C-terminal 6X-His tag (domain or fragment, UniProt Q9GZM8 1-192, looked up)
chain: MDGEDIPDFSSLKEETAYWKELSLKYKQSFQEARDELVEFQEGSRELEAELEAQLVQAEQRNRDLQADNQRLKYEVEALKEKLEHQYAQSYKQVSVLEDDLSQTRAIKEQLHKYVRELEQANDDLERAKRATIVSLEDFEQRLNQAIERNAFLESELDEKESLLVSVQRLKDEARDLRQELAVRERQQEVTR
notes: Ndel1 residues 1-192; also called NT-Ndel1; ZZ-TEV-Halo-Ndel1(1-192)-His6; source: Sf9, purified (IgG Sepharose, TEV cleavage, SEC); not shown: ZZ, N-terminal, cleaved; HaloTag, N-terminal, kept; His6, C-terminal, kept
- landing rate of processive DDB events (smTIRF) with 300 nM NT-Ndel1, against DDB alone [2]: ~2 fold reduction
- velocity of DDB (smTIRF) with 300 nM NT-Ndel1, against DDB alone [2]: ~2 fold reduction
- Kd (Lis1 (in solution)): ~1.2 nM
- Kd [1]: 79 nM

Now from value to binder:

- Kd [1]: 55 nM
B1: Halo-tagged Ndel1 with the C-terminal coiled coil (256-291) deleted, with C-terminal 6X-His tag (natural protein, UniProt Q9GZM8 1-345, looked up)
chain: MDGEDIPDFSSLKEETAYWKELSLKYKQSFQEARDELVEFQEGSRELEAELEAQLVQAEQRNRDLQADNQRLKYEVEALKEKLEHQYAQSYKQVSVLEDDLSQTRAIKEQLHKYVRELEQANDDLERAKRATIVSLEDFEQRLNQAIERNAFLESELDEKESLLVSVQRLKDEARDLRQELAVRERQQEVTRKSAPSSPTLDCEKMDSAVQASLSLPATPVGKGTENTFPSPKAIPNGFGTSPLTPSARISALNINCGVLNGNGTKFSRSGHTSFFDKGAVNGFDPAPPPPGLGSSRPSSAPGMLPLSV
notes: Ndel1 with residues 256-291 deleted; also called Ndel1^ΔCTCC; FL-Ndel1^ΔCTCC; source: Sf9, purified (IgG Sepharose, TEV cleavage, SEC); not shown: ZZ, N-terminal, cleaved; HaloTag, N-terminal, kept; His6, C-terminal, kept

- Kd (Lis1): 4.6 nM
B2: Full-length Ndel1 with N-terminal HaloTag and C-terminal 6X-His tag (natural protein, UniProt Q9GZM8 1-345, looked up)
chain: MDGEDIPDFSSLKEETAYWKELSLKYKQSFQEARDELVEFQEGSRELEAELEAQLVQAEQRNRDLQADNQRLKYEVEALKEKLEHQYAQSYKQVSVLEDDLSQTRAIKEQLHKYVRELEQANDDLERAKRATIVSLEDFEQRLNQAIERNAFLESELDEKESLLVSVQRLKDEARDLRQELAVRERQQEVTRKSAPSSPTLDCEKMDSAVQASLSLPATPVGKGTENTFPSPKAIPNGFGTSPLTPSARISALNIVGDLLRKVGALESKLAACRNFAKDQASRKSYISGNVNCGVLNGNGTKFSRSGHTSFFDKGAVNGFDPAPPPPGLGSSRPSSAPGMLPLSV
notes: Coupled to Magne HaloTag beads through the HaloTag; also called FL-Ndel1; Halo-Ndel1; source: Sf9 cells, purified (IgG Sepharose, TEV cleavage, size-exclusion chromatography); not shown: ZZ, N-terminal, cleaved; HaloTag, N-terminal, kept; His6, C-terminal, kept

- Kd [3]: 101 nM
B7: Halo-Lis1 (natural protein, UniProt P43034 1-410, looked up)
chain: MVLSQRQRDELNRAIADYLRSNGYEEAYSVFKKEAELDVNEELDKKYAGLLEKKWTSVIRLQKKVMELESKLNEAKEEFTSGGPLGQKRDPKEWIPRPPEKYALSGHRSPVTRVIFHPVFSVMVSASEDATIKVWDYETGDFERTLKGHTDSVQDISFDHSGKLLASCSADMTIKLWDFQGFECIRTMHGHDHNVSSVAIMPNGDHIVSASRDKTIKMWEVQTGYCVKTFTGHREWVRMVRPNQDGTLIASCSNDQTVRVWVVATKECKAELREHEHVVECISWAPESSYSSISEATGSETKKSGKPGPFLLSGSRDKTIKMWDVSTGMCLMTLVGHDNWVRGVLFHSGGKFILSCADDKTLRVWDYKNKRCMKTLNAHEHFVTSLDFHKTAPYVVTGSVDQTVKVWECR
notes: Lis1; also called ZZ-TEV-Halo-Lis1; Lis1-conjugated beads; source: Sf9, purified (IgG Sepharose, TEV cleavage, SEC); not shown: ZZ, N-terminal, cleaved; HaloTag, N-terminal, kept
